Data: patent WO2011147762A2

Assays:
[1] = biological target: ED-B fibronectin antigen protein (recombinant), bound to CNBr activated sepharose 4B (UniProt P02751); assay: ED-B sepharose column, % of total radioactivity bound; Study B3; thioglycerol 10 mg/mL; day 2
[2] = biological target: ED-B fibronectin antigen protein (recombinant), bound to CNBr activated sepharose 4B (UniProt P02751); assay: ED-B sepharose column, % of total radioactivity bound; Study A; methionine 10 mg/mL; day 3
[3] = biological target: ED-B fibronectin antigen protein (recombinant), bound to CNBr activated sepharose 4B (UniProt P02751); assay: ED-B sepharose column, % of total radioactivity bound; Study B3; ascorbic acid 25 mg/mL; day 2
[4] = biological target: ED-B fibronectin antigen protein (recombinant), bound to CNBr activated sepharose 4B (UniProt P02751); assay: ED-B sepharose column, % of total radioactivity bound; Study A; maltose 25 mg/mL; day 1
[5] = biological target: ED-B fibronectin antigen protein (recombinant), bound to CNBr activated sepharose 4B (UniProt P02751); assay: ED-B sepharose column, % of total radioactivity bound; Study B3; ascorbic acid 25 mg/mL; day 1
[6] = biological target: ED-B fibronectin antigen protein (recombinant), bound to CNBr activated sepharose 4B (UniProt P02751); assay: ED-B sepharose column, % of total radioactivity bound; Study A; sodium thiosulfate 50 mg/mL; day 1
[7] = biological target: ED-B fibronectin antigen protein (recombinant), bound to CNBr activated sepharose 4B (UniProt P02751); assay: ED-B sepharose column, % of total radioactivity bound; Study A; methionine 25 mg/mL; day 3
[8] = biological target: ED-B fibronectin antigen protein (recombinant), bound to CNBr activated sepharose 4B (UniProt P02751); assay: ED-B sepharose column, % of total radioactivity bound; Study A; methionine 5 mg/mL; day 5
[9] = biological target: ED-B fibronectin antigen protein (recombinant), bound to CNBr activated sepharose 4B (UniProt P02751); assay: ED-B sepharose column, % of total radioactivity bound; Study A; inositol 25 mg/mL; day 5
[10] = biological target: ED-B fibronectin antigen protein (recombinant), bound to CNBr activated sepharose 4B (UniProt P02751); assay: ED-B sepharose column, % of total radioactivity bound; Study A; maltose 10 mg/mL; day 5
[11] = biological target: ED-B fibronectin antigen protein (recombinant), bound to CNBr activated sepharose 4B (UniProt P02751); assay: ED-B sepharose column, % of total radioactivity bound; Study A; inositol 50 mg/mL; day 5
[12] = biological target: ED-B fibronectin antigen protein (recombinant), bound to CNBr activated sepharose 4B (UniProt P02751); assay: ED-B sepharose column, % of total radioactivity bound; Study A; maltose 50 mg/mL; day 1
[13] = biological target: ED-B fibronectin antigen protein (recombinant), bound to CNBr activated sepharose 4B (UniProt P02751); assay: ED-B sepharose column, % of total radioactivity bound; Study B3; human serum albumin 10 mg/mL; day 1
[14] = biological target: ED-B fibronectin antigen protein (recombinant), bound to CNBr activated sepharose 4B (UniProt P02751); assay: ED-B sepharose column, % of total radioactivity bound; Study A; sodium thiosulfate 10 mg/mL; day 1
[15] = biological target: ED-B fibronectin antigen protein (recombinant), bound to CNBr activated sepharose 4B (UniProt P02751); assay: ED-B sepharose column, % of total radioactivity bound; Study A; trolox 5 mg/mL; day 5
[16] = biological target: ED-B fibronectin antigen protein (recombinant), bound to CNBr activated sepharose 4B (UniProt P02751); assay: ED-B sepharose column, % of total radioactivity bound; Study B3; no-excipient control (PBS); day 3
[17] = biological target: ED-B fibronectin antigen protein (recombinant), bound to CNBr activated sepharose 4B (UniProt P02751); assay: ED-B sepharose column, % of total radioactivity bound; Study A; sodium thiosulfate 5 mg/mL; day 5
[18] = biological target: ED-B fibronectin antigen protein (recombinant), bound to CNBr activated sepharose 4B (UniProt P02751); assay: ED-B sepharose column, % of total radioactivity bound; Study A; no-excipient control (saline); day 5
[19] = biological target: ED-B fibronectin antigen protein (recombinant), bound to CNBr activated sepharose 4B (UniProt P02751); assay: ED-B sepharose column, % of total radioactivity bound; Study B3; no-excipient control (PBS); day 2
[20] = biological target: ED-B fibronectin antigen protein (recombinant), bound to CNBr activated sepharose 4B (UniProt P02751); assay: ED-B sepharose column, % of total radioactivity bound; Study A; sodium thiosulfate 5 mg/mL; day 1
[21] = biological target: ED-B fibronectin antigen protein (recombinant), bound to CNBr activated sepharose 4B (UniProt P02751); assay: ED-B sepharose column, % of total radioactivity bound; Study B3; no-excipient control (PBS); day 5
[22] = biological target: ED-B fibronectin antigen protein (recombinant), bound to CNBr activated sepharose 4B (UniProt P02751); assay: ED-B sepharose column, % of total radioactivity bound; Study A; inositol 10 mg/mL; day 1
[23] = biological target: ED-B fibronectin antigen protein (recombinant), bound to CNBr activated sepharose 4B (UniProt P02751); assay: ED-B sepharose column, % of total radioactivity bound; Study A; no-excipient control (saline); day 7
[24] = biological target: ED-B fibronectin antigen protein (recombinant), bound to CNBr activated sepharose 4B (UniProt P02751); assay: ED-B sepharose column, % of total radioactivity bound; Study B3; inositol 10 mg/mL; day 5
[25] = biological target: ED-B fibronectin antigen protein (recombinant), bound to CNBr activated sepharose 4B (UniProt P02751); assay: ED-B sepharose column, % of total radioactivity bound; Study A; trolox 5 mg/mL; day 0
[26] = biological target: ED-B fibronectin antigen protein (recombinant), bound to CNBr activated sepharose 4B (UniProt P02751); assay: ED-B sepharose column, % of total radioactivity bound; Study A; inositol 5 mg/mL; day 3
[27] = biological target: ED-B fibronectin antigen protein (recombinant), bound to CNBr activated sepharose 4B (UniProt P02751); assay: ED-B sepharose column, % of total radioactivity bound; Study A; sodium thiosulfate 10 mg/mL; day 3
[28] = biological target: ED-B fibronectin antigen protein (recombinant), bound to CNBr activated sepharose 4B (UniProt P02751); assay: ED-B sepharose column, % of total radioactivity bound; Study A; sodium thiosulfate 25 mg/mL; day 5

131I L19-SIP (radioiodinated L19 SIP homodimer), sequence (chain): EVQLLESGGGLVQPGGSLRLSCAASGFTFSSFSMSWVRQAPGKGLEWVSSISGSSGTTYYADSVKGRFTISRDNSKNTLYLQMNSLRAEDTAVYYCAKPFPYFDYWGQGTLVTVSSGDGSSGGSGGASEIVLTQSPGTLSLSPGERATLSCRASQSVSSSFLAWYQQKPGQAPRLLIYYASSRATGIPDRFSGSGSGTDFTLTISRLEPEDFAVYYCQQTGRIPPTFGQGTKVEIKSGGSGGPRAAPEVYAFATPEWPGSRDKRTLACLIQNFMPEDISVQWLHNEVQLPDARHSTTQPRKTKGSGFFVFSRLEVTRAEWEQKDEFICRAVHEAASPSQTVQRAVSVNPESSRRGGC
131I L19-SIP (radioiodinated L19 SIP homodimer), sequence (chain): as above
UniProt P02751, sequence (P02751 1266-1356 limits assumed): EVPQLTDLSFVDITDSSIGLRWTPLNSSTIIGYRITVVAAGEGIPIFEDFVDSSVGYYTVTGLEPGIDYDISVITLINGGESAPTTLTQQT

Immunoreactivity (IR) (%) [1]: 58.4% | Immunoreactivity (%) [2]: 75.7% | Immunoreactivity (IR) (%) [3]: 75% | Immunoreactivity (%) [4]: 86.4% | Immunoreactivity (IR) (%) [5]: 78% | Immunoreactivity (%) [6]: 96.9% | Immunoreactivity (%) [7]: 79.6% | Immunoreactivity (%) [8]: 62.6% | Immunoreactivity (%) [9]: 59.9% | Immunoreactivity (%) [10]: 57.2% | Immunoreactivity (%) [11]: 63.7% | Immunoreactivity (%) [12]: 85.9% | Immunoreactivity (IR) (%) [13]: 78% | Immunoreactivity (%) [14]: 94.7% | Immunoreactivity (%) [15]: 65.8% | Immunoreactivity (IR) (%) [16]: 68.3% | Immunoreactivity (%) [17]: 79.4% | Immunoreactivity (%) [18]: 47.6% | Immunoreactivity (IR) (%) [19]: 71.3% | Immunoreactivity (%) [20]: 94.4% | Immunoreactivity (IR) (%) [21]: 56.4% | Immunoreactivity (%) [22]: 89.5% | Immunoreactivity (%) [23]: 43.7% | Immunoreactivity (IR) (%) [24]: 61.2% | Immunoreactivity (%) [25]: 94.6% | Immunoreactivity (%) [26]: 64.6% | Immunoreactivity (%) [27]: 88.5% | Immunoreactivity (%) [28]: 87.9%
Substance: 131I L19-SIP (radioiodinated L19 SIP homodimer)
